B1: p75^NTR TMD-AraTM chimera, wild type (MBP - p75^NTR TMD - AraC) [human] / itself (parent)
chain: NLIPVYCSILAAVVVGLVAYIAFKRW

Variants of: B1
Assay: AraTM assay
Details: with itself, 100% = WT TMD without drug, read off a plot

percent of parent (7.5 µM Div17E5) | percent of parent (15 µM Div17E5) | percent of parent (20 µM Div17E5) | percent of parent (50 µM Div17E5) | percent of parent (no drug (0 µM Div17E5)) | Variant
92% | 93% | 95% | 92% | 97% | chain 1 V5A
97% | 97% | 97% | 100% | 100% | chain 1 I3A
68% | 65% | 55% | 57% | 100% | chain 1 P4G
